From article PMC10590331, “Purification and Biochemical Characterization of the DNA Binding Domain of the Nitrogenase Transcriptional Activator NifA from Gluconacetobacter diazotrophicus”

Columns and labels:
Details in all cases: protein: recombinant; tags: N-terminal His-tag (pET28a, NheI/BamHI) removed with thrombin; label: 5' TAMRA on forward strand; blunt
[1] = target: T1, NifA 2C-DBD (DNA binding domain with upstream Cys pair) (Gluconacetobacter diazotrophicus, UniProt A9H5T0 520-581); assay: fluorescence anisotropy; oxidized (disulfide), no DTT; 10 mM Tris pH 8, 60 mM NaCl, 0.2 mM MgCl2 (5 mM DTT when reducing), 900 nM probe, 0-80 µM protein, 30 min at room temperature
T1 sequence: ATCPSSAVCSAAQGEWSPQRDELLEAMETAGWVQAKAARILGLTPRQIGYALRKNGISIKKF

[2] = target: T2, NifA NC-DBD (DNA binding domain without Cys pair) (Gluconacetobacter diazotrophicus, UniProt A9H5T0 530-581); assay: fluorescence anisotropy; no DTT; 10 mM Tris pH 8, 60 mM NaCl, 0.2 mM MgCl2 (5 mM DTT when reducing), 900 nM probe, 0-80 µM protein, 30 min at room temperature
T2 sequence: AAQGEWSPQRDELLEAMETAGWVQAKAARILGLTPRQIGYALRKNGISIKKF

[3] = target: T1, NifA 2C-DBD (DNA binding domain with …); assay: fluorescence anisotropy; reduced, 5 mM DTT; 10 mM Tris pH 8, 60 mM NaCl, 0.2 mM MgCl2 (5 mM DTT when reducing), 900 nM probe, 0-80 µM protein, 30 min at room temperature

B1: nifH-UAS duplex, TAMRA-labeled (dsDNA)
DNA 1: CGGTTTTGTCAGGCTTCGCACAAAGCCG
DNA 2: CGGCTTTGTGCGAAGCCTGACAAAACCG
- Kd [1]: 34.5 ± 8.4 µM
- Kd [2]: 20 ± 5.6 µM
- Kd [3]: 31.5 ± 8.1 µM
